# Results published in EP4803149A2 (Lyvgen Biopharma Holdings Limited, dated 2026).
# Biological target: CD3 (human)
# Assay: ELISA or FCM (as in Example 2)
row,Binder,EC50
1,"Ly1965 (bispecific antibody, B7H3/CD3; central CD3 Fv) chain 1: QVQLVQSGAEVKKPGASVKVSCKASGYTFTSYVMHWVRQKPGQGLEWIGYINPYNEGTESTDKFKGRATMTSDKSTSTVYMELSSLRSEDTAVYYCASIYYGYEGTYFGVWGQGTLVTVSSASTKGPSVFPLAPSSKSTSGGTAALGCLVKDYFPEPVTVSWNSGALTSGVHTFPAVLQSSGLYSLSSVVTVPSSSLGTQTYICNVNHKPSNTKVDKKVEPKSCGGGGSGGGGSGGGGSGGGGSEVQLVESGGGLVQPGGSLRLSCAASGFTFSTYAMNWVRQAPGKGLEWVGRIRSKYNNYATYYADSVKGRFTISRDDSKNSLYLQMNSLKTEDTAVYYCVRHGNFGNSYVSWFAYWGQGTLVTVSSGGGGSDKTHTCPPCPAPEAAGPSVFLFPPKPKDTLMISRTPEVTCVVVDVSHEDPEVKFNWYVDGVEVHNAKTKPREEQYNSTYRVVSVLTVLHQDWLNGKEYKCKVSNKALPAPIEKTISKAKGQPREPQVYTLPPSREEMTKNQVSLWCLVKGFYPSDIAVEWESNGQPENNYKTTPPVLDSDGSFFLYSKLTVDKSRWQQGNVFSCSVMHEALHNHYTQKSLSLSPG chain 2: QVQLVQSGAEVKKPGASVKVSCKASGYTFTSYVMHWVRQKPGQGLEWIGYINPYNEGTESTDKFKGRATMTSDKSTSTVYMELSSLRSEDTAVYYCASIYYGYEGTYFGVWGQGTLVTVSSASTKGPSVFPLAPSSKSTSGGTAALGCLVKDYFPEPVTVSWNSGALTSGVHTFPAVLQSSGLYSLSSVVTVPSSSLGTQTYICNVNHKPSNTKVDKKVEPKSCGGGGSGGGGSGGGGSGGGGSQAVVTQEPSLTVSPGGTVTLTCRSSTGAVTTSNYANWVQQKPGQAPRGLIGGTNKRAPWTPARFSGSLLGGKAALTITGAQAEDEADYYCALWYSNLWVFGGGTKLTVLGGGGSDKTHTCPPCPAPEAAGPSVFLFPPKPKDTLMISRTPEVTCVVVDVSHEDPEVKFNWYVDGVEVHNAKTKPREEQYNSTYRVVSVLTVLHQDWLNGKEYKCKVSNKALPAPIEKTISKAKGQPREPQVYTLPPSREEMTKNQVSLSCAVKGFYPSDIAVEWESNGQPENNYKTTPPVLDSDGSFFLVSKLTVDKSRWQQGNVFSCSVMHEALHNRFTQKSLSLSPG chain 3: EIVLTQSPATLSLSPGERATLSCRASSSVSYMHWYQQKPGQAPRPWIYATSNLASGIPARFSGSRSGTDYTLTISSLEPEDFAVYYCQQWSSNTLTFGGGTKVEIKRTVAAPSVFIFPPSDEQLKSGTASVVCLLNNFYPREAKVQWKVDNALQSGNSQESVTEQDSKDSTYSLSSTLTLSKADYEKHKVYACEVTHQGLSSPVTKSFNRGEC",0.419 µg/mL
2,"Ly1963 (multi-specific antibody, B7H3/CD3/CD137 tri-specific; central CD3 Fv, terminal CD137 Fv) chain 1: QVQLVQSGAEVKKPGASVKVSCKASGYTFTSYVMHWVRQKPGQGLEWIGYINPYNEGTESTDKFKGRATMTSDKSTSTVYMELSSLRSEDTAVYYCASIYYGYEGTYFGVWGQGTLVTVSSASTKGPSVFPLAPSSKSTSGGTAALGCLVKDYFPEPVTVSWNSGALTSGVHTFPAVLQSSGLYSLSSVVTVPSSSLGTQTYICNVNHKPSNTKVDKKVEPKSCGGGGSGGGGSGGGGSGGGGSEVQLVESGGGLVQPGGSLRLSCAASGFTFSTYAMNWVRQAPGKGLEWVGRIRSKYNNYATYYADSVKGRFTISRDDSKNSLYLQMNSLKTEDTAVYYCVRHGNFGNSYVSWFAYWGQGTLVTVSSGGGGSDKTHTCPPCPAPEAAGPSVFLFPPKPKDTLMISRTPEVTCVVVDVSHEDPEVKFNWYVDGVEVHNAKTKPREEQYNSTYRVVSVLTVLHQDWLNGKEYKCKVSNKALPAPIEKTISKAKGQPREPQVYTLPPSREEMTKNQVSLWCLVKGFYPSDIAVEWESNGQPENNYKTTPPVLDSDGSFFLYSKLTVDKSRWQQGNVFSCSVMHEALHNHYTQKSLSLSPGGGGGSGGGGSGGGGSGGGGSQVQLVQSGAEVKKPGASVKVSCKASGYTFAGFEMHWVRQAPGQGLEWMGAIDPKTGGTDYNQKFKDRVTMTRDTSISTAYMELSRLRSDDTAVYYCARDLGYFDVWGQGTLVTVSS chain 2: QVQLVQSGAEVKKPGASVKVSCKASGYTFTSYVMHWVRQKPGQGLEWIGYINPYNEGTESTDKFKGRATMTSDKSTSTVYMELSSLRSEDTAVYYCASIYYGYEGTYFGVWGQGTLVTVSSASTKGPSVFPLAPSSKSTSGGTAALGCLVKDYFPEPVTVSWNSGALTSGVHTFPAVLQSSGLYSLSSVVTVPSSSLGTQTYICNVNHKPSNTKVDKKVEPKSCGGGGSGGGGSGGGGSGGGGSQAVVTQEPSLTVSPGGTVTLTCRSSTGAVTTSNYANWVQQKPGQAPRGLIGGTNKRAPWTPARFSGSLLGGKAALTITGAQAEDEADYYCALWYSNLWVFGGGTKLTVLGGGGSDKTHTCPPCPAPEAAGPSVFLFPPKPKDTLMISRTPEVTCVVVDVSHEDPEVKFNWYVDGVEVHNAKTKPREEQYNSTYRVVSVLTVLHQDWLNGKEYKCKVSNKALPAPIEKTISKAKGQPREPQVYTLPPSREEMTKNQVSLSCAVKGFYPSDIAVEWESNGQPENNYKTTPPVLDSDGSFFLVSKLTVDKSRWQQGNVFSCSVMHEALHNHYTQKSLSLSPGGGGGSGGGGSGGGGSGGGGSDIQMTQSPSSLSASVGDRVTITCRASQDIRSNLNWYQQKPGGAVKLLIYYTSRLHSGVPSRFSGSGSGTDYTLTISSLQPEDFATYFCQQSEKLPRTFGGGTKVEIR chain 3: EIVLTQSPATLSLSPGERATLSCRASSSVSYMHWYQQKPGQAPRPWIYATSNLASGIPARFSGSRSGTDYTLTISSLEPEDFAVYYCQQWSSNTLTFGGGTKVEIKRTVAAPSVFIFPPSDEQLKSGTASVVCLLNNFYPREAKVQWKVDNALQSGNSQESVTEQDSKDSTYSLSSTLTLSKADYEKHKVYACEVTHQGLSSPVTKSFNRGEC",0.74 µg/mL
3,"Ly2128 (multi-specific antibody, Tri-specific B7H3/CD3/CD28; central CD3 Fv, terminal CD28 Fv) chain 1: QVQLVQSGAEVKKPGASVKVSCKASGYTFTSYVMHWVRQKPGQGLEWIGYINPYNEGTESTDKFKGRATMTSDKSTSTVYMELSSLRSEDTAVYYCASIYYGYEGTYFGVWGQGTLVTVSSASTKGPSVFPLAPSSKSTSGGTAALGCLVKDYFPEPVTVSWNSGALTSGVHTFPAVLQSSGLYSLSSVVTVPSSSLGTQTYICNVNHKPSNTKVDKKVEPKSCGGGGSGGGGSGGGGSGGGGSEVQLVESGGGLVQPGGSLRLSCAASGFTFSTYAMNWVRQAPGKGLEWVGRIRSKYNNYATYYADSVKGRFTISRDDSKNSLYLQMNSLKTEDTAVYYCVRHGNFGNSYVSWFAYWGQGTLVTVSSGGGGSDKTHTCPPCPAPEAAGPSVFLFPPKPKDTLMISRTPEVTCVVVDVSHEDPEVKFNWYVDGVEVHNAKTKPREEQYNSTYRVVSVLTVLHQDWLNGKEYKCKVSNKALPAPIEKTISKAKGQPREPQVYTLPPSREEMTKNQVSLWCLVKGFYPSDIAVEWESNGQPENNYKTTPPVLDSDGSFFLYSKLTVDKSRWQQGNVFSCSVMHEALHNHYTQKSLSLSPGGGGGSGGGGSGGGGSGGGGSQVQLVQSGAEVKKPGASVKVSCKASGYTFTSYYIHWVRQAPGQGLEWIGCIYPGNVNTNYNEKFKDRATLTVDTSISTAYMELSRLRSDDTAVYFCTRSHYGLDWNFDVWGQGTTVTVSS chain 2: not shown chain 3: EIVLTQSPATLSLSPGERATLSCRASSSVSYMHWYQQKPGQAPRPWIYATSNLASGIPARFSGSRSGTDYTLTISSLEPEDFAVYYCQQWSSNTLTFGGGTKVEIKRTVAAPSVFIFPPSDEQLKSGTASVVCLLNNFYPREAKVQWKVDNALQSGNSQESVTEQDSKDSTYSLSSTLTLSKADYEKHKVYACEVTHQGLSSPVTKSFNRGEC",1.08 µg/mL
4,"Anti-CD3 Ly305 (antibody, V domains shown, mAb; also called parent anti-CD3 mAb) VH: EVQLVESGGGLVQPGGSLRLSCAASGFTFSTYAMNWVRQAPGKGLEWVGRIRSKYNNYATYYADSVKGRFTISRDDSKNSLYLQMNSLKTEDTAVYYCVRHGNFGNSYVSWFAYWGQGTLVTVSS VL: QAVVTQEPSLTVSPGGTVTLTCRSSTGAVTTSNYANWVQQKPGQAPRGLIGGTNKRAPWTPARFSGSLLGGKAALTITGAQAEDEADYYCALWYSNLWVFGGGTKLTVL",0.03 µg/mL
